Results taken from paper PMC10659534 (Research Square, 2023).

B1: H7.HK1 (antibody, V domains shown)
VH: QVQLQESGPGLVKPSETLSLTCSVSGGSINSYYWTWIRQPPGKGLEWVGYIYHSGSTSYNPSLKSRITISVAPSKNHFSLELTSMTAADTAVYYCARLGGHGDYGSDYWGQGTLVTVSS
VL: DIVMTQSPVSLPVTPGEPASISCNSSQSLLHSNGYAHLDWYLQKPGQSPKLMIYLGLNRAFGVPDRFSGSGSGTDFTLKISRVEAEDVGVYYCMQALQTPFTFGPGTRVDIK
notes: also called H7.HK1 mAb; H7.HK1 human IgG1
B2: H7.HK2 (antibody, V domains shown)
VH: QVQLQGSGPGLLRPSETLSLTCSVSGVSINSYYWSWVRQPPGKALEWIGYIYYSGNTNYNPSLESRVTISVDRSKNQFSLKMTSVTAADTARYFCARQGIFGDYGSDYWGPGTLVTVSS
VL: DIVMTQSPLSLPVTPGEPASISCRSNQSLQHSNGYVHLDWYRQKPGQSPHLLIYLGFNRASGVPDRFSGGGSGTDFTLKISRVEAEDVGVYYCMQGLQTPFTFGPGTTVDLK
notes: also called H7.HK2 mAb; H7.HK2 human IgG1
B3: H7.HK3 (antibody, V domains shown)
VH: QVQLVQSGSELKRPGASVKVSCRASGYTFTSYTINWVRQAPGQGLEWMGWINTSTGDPTYAQGFTGRFVFSLDTSVSTAYLEISRLKAEDTAVYYCARAFGLTVVRGGIVGVWGQGTTVTVSS
VL: not shown
notes: also called H7.HK3 mAb
B4: H7.HK4 (antibody, V domains shown)
VH: QVQLQESGPGLVKPSETLSLTCTVSGGSVRSASYAWSWIRQPPGKGLEWIGDIYYSGTTNYNPSLKSRVTLSVDTAKNRFSLRLRSVTAADTAVYHCARERYYYGSSGDFDYWGQGTLVTVSS
VL: DIQMTQSPSSLSASVGDRVTITCRASQGIRNYLAWFQQKPGQAPKSLIFAASSLHTGVPSRFSGSGSGTDFTLTISSLQPEDFATYYCQHYNSYPPTFGQGTKLEIK
notes: also called H7.HK4 mAb

These binders were tested against T1, recombinant H7N7 HA based on A/Netherlands/219/2003 (Influenza A virus …, UniProt Q6VMK1) (assay: ELISA). Conditions: both partners purified.
T1 construct: source: bought: Immune Technologies, New York, NY

Binder | binding result
B1 | binds
B2 | binds
B3 | binds
B4 | binds

Each binder was assayed against H7N9 HA (A/Shanghai/2/2013) pre-treated with Endoglycosidase H (Influenza A virus A/Shanghai/2/2013 …, UniProt R4NN21) (assay: ELISA). Conditions: both partners purified.

Binder | binding result
B1 | binds
B2 | binds
B3 | binds
B4 | binds

Each binder was assayed against H15N8 HA (Influenza A virus H15N8, strain not …, UniProt Q82565, strain) (assay: ELISA). Conditions: both partners purified.

Binder | binding result
B3 | binds
B4 | binds

These binders were tested against T2, soluble recombinant H7N9 HA based on A/Shanghai/2/2013 (Influenza A virus A/Shanghai/2/2013 …, UniProt R4NN21) (assay: ELISA). Conditions: both partners purified.
T2 construct: source: bought: Immune Technologies, New York, NY

Binder | binding result
B1 | binds
B2 | binds
B3 | binds
B4 | binds

Each binder was assayed against H7N9 HA1 based on A/Shanghai/2/2013 (Influenza A virus A/Shanghai/2/2013 …, UniProt R4NN21, strain) (assay: ELISA). Conditions: both partners purified.

Binder | binding result
B1 | binds
B2 | binds
B3 | binds
B4 | no binding
